Assays:
[1] = target: T1, purified human carcinoembryonic antigen (hCEA) protein (human, UniProt P06731 35-685, limits assumed); assay: ELISA, hCEA coated on plate, virions detected with anti-adenovirus goat Ab
T1 construct: Bought protein coated on ELISA plates or used in solution to pre-incubate the virus; also called human CEA protein; recombinant hCEA protein (ab742)
T1 sequence (looked up): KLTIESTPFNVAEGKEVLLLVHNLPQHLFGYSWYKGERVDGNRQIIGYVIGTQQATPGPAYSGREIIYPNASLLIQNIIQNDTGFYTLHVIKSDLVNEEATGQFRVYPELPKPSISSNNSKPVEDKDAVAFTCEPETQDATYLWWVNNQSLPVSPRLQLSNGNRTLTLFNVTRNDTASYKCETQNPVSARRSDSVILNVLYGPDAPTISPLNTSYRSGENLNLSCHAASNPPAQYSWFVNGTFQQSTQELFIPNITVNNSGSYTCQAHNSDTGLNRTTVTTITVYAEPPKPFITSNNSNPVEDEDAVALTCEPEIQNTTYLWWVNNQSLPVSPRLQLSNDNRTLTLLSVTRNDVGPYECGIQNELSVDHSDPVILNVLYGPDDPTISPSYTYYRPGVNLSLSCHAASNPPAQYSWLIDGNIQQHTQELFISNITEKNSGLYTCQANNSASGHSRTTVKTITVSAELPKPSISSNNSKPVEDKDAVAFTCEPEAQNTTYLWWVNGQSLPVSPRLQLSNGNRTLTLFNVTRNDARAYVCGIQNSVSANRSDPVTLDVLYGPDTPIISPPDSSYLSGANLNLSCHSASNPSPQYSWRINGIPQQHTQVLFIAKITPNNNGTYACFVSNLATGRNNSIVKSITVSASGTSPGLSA

[2] = target: T2, human carcinoembryonic antigen (hCEA) expressed on cells (human, UniProt P06731 35-685); assay: cell binding for one hour at 5x10^3 v.p. per cell, hexon qPCR; hCEA up-regulated by irradiation
T2 construct: whole, on cells; also called hCEA on MC38CEA cells; hCEA on PC-3, LS174T, A549, HS766T cells
T2 sequence (looked up): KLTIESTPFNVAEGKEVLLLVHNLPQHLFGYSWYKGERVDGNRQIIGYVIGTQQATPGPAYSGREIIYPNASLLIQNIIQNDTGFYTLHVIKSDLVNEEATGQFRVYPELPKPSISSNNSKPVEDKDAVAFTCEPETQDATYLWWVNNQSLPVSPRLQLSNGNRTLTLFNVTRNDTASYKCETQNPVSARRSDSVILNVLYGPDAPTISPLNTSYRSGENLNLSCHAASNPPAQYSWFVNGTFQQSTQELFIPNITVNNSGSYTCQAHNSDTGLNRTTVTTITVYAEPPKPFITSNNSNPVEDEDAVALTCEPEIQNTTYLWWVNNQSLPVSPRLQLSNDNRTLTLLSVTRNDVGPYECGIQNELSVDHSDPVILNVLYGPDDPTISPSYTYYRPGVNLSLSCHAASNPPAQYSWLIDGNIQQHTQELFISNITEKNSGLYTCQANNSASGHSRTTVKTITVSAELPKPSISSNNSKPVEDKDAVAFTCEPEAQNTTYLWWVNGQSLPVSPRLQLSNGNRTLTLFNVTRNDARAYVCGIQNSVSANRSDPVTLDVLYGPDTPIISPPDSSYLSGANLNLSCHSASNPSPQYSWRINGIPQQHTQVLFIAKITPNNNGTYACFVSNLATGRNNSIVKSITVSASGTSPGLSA

[3] = target: T2, human carcinoembryonic antigen (hCEA) …; assay: cell-based or functional assay
[4] = target: T1, purified human carcinoembryonic antigen …; assay: dilution ELISA, hCEA coated on plate, VHH detected with HRP/anti-E-tag mAb
Procedure: Nunc Maxisorb plates (Nunc) were coated overnight at 4° C. with 1 μg/ml human CEA protein (Abeam, Cambridge, Mass.). The plates were blocked in binding buffer containing 5% w/v non-fat milk in Tris-buffered saline (TBS). […] Plates were incubated at 25° C. for one hour and then washed three times with TBS. Bound VHHs were detected with HRP/anti-E-tag mAb (Bethyl Laboratories, Montgomery, Tex.).
The plates for enzyme-linked immunosorbent assay were coated with purified hCEA protein and then purified VHH were added in wells at various concentrations. (FIG. 2A) Bound VHHs were detected with HRP/anti-E-tag mAb. […] The EC₅₀ values are the VHH concentration that produced 50% maximum signal on the ELISAs.

[5] = target: T2, human carcinoembryonic antigen (hCEA) …; assay: cell binding for one hour at 1x10^3 vp per cell, Ad hexon gene copy number per 20 ng total DNA by qPCR
[6] = target: T2, human carcinoembryonic antigen (hCEA) …; assay: cell binding for one hour, Ad hexon gene copy number by qPCR, MC38CEA against MC38 cells

B1: AdVHH122Luc (Ad5 vector displaying anti-EGFR fiber-fibritin-VHH chimera, clone VHH122) (other)
chain: MKRARPSEDTFNPVYPYDTETGPPTVPFLTPPFVSPNGFQESPPGVLSLRLSEPLVTSNGMLALKMGNGLSLDEAGNLTSQNVYSRLNEIDTKQTTVESDISAIKTSIGYPGNNSIITSVNTNTDNIASINLELNQSGGIKQRLTVIETSIGSDDIPSSIKGQIKDNTTSIESLNGIVGENTSSGLRANVSWLNQIVGTDSSGGQPSPPGSLLNRVSTIETSVSGLNNAVQNLQVEIGNNSAGIKGQVVALNTLVNGTNPNGSTVEERGLTNSIKANETNIASVTQEVNTAKGNISSLQGDVQALQEAGYIPEAPRDGQAYVRKDGEWVFLSTFLSPAGGGGSEVQLQESGGGLVQAGDSLRLSCLVSGRSFNSYTMGWFRQAPGKEREFVAAILWSGPTTYYADSVKGRFTISRDNAKNTVYLQMNSLKPEDTAVYYCAAALGVLVLAPGNVYSYWGQGTQVTVSS
notes: domain: N-terminal Ad5 fiber tail region;domain: entire fibritin protein with the trimerizing foldon domain; Isogenic control vector; chimeric fiber on whole purified Ad5 virus particles; also called FF-VHH122
B1: no binding [1].

B2: AdB2Luc (Ad5 vector displaying anti-hCEA fiber-fibritin-VHH chimera, clone B2) (other)
chain: MKRARPSEDTFNPVYPYDTETGPPTVPFLTPPFVSPNGFQESPPGVLSLRLSEPLVTSNGMLALKMGNGLSLDEAGNLTSQNVYSRLNEIDTKQTTVESDISAIKTSIGYPGNNSIITSVNTNTDNIASINLELNQSGGIKQRLTVIETSIGSDDIPSSIKGQIKDNTTSIESLNGIVGENTSSGLRANVSWLNQIVGTDSSGGQPSPPGSLLNRVSTIETSVSGLNNAVQNLQVEIGNNSAGIKGQVVALNTLVNGTNPNGSTVEERGLTNSIKANETNIASVTQEVNTAKGNISSLQGDVQALQEAGYIPEAPRDGQAYVRKDGEWVFLSTFLSPAGGGGSQVQLVETGGGLVQPGGSLRLSCAASESIFSTYAMGWYRQAPGKQRELVAAITTNDIANYADSVKGRFTISRDNAKNTVYLQMNSLNPEDTAVYYCNAIFPPYNYWGQGTQVTVSSEPKTPKPQ
notes: domain: N-terminal Ad5 fiber tail region;domain: entire fibritin protein with the trimerizing foldon domain; The chimeric fiber stood in the assay on whole purified Ad5 virus particles (other capsid proteins present); also called FF-VHH B2; FF-B2
B2 was tested, and the “fold increase of Ad hexon gene copy number in irradiated (6 Gy) against mock-treated A549 cells” value [2] was 5.1 fold, the “fold increase of Ad hexon gene copy number in irradiated (6 Gy) against mock-treated LS174T cells” value [2] was 3.2 fold and the “fold increase of Ad hexon gene copy number in irradiated (6 Gy) against mock-treated PC-3 cells” value [2] was 2.8 fold. The “reporter gene (Luc) expression in hCEA-positive MC38CEA cells in comparison with MC38 cells” value [3] was greater than 55 fold.

B3: AdC17Luc (Ad5 vector displaying anti-hCEA fiber-fibritin-VHH chimera, clone C17) (other)
chain: MKRARPSEDTFNPVYPYDTETGPPTVPFLTPPFVSPNGFQESPPGVLSLRLSEPLVTSNGMLALKMGNGLSLDEAGNLTSQNVYSRLNEIDTKQTTVESDISAIKTSIGYPGNNSIITSVNTNTDNIASINLELNQSGGIKQRLTVIETSIGSDDIPSSIKGQIKDNTTSIESLNGIVGENTSSGLRANVSWLNQIVGTDSSGGQPSPPGSLLNRVSTIETSVSGLNNAVQNLQVEIGNNSAGIKGQVVALNTLVNGTNPNGSTVEERGLTNSIKANETNIASVTQEVNTAKGNISSLQGDVQALQEAGYIPEAPRDGQAYVRKDGEWVFLSTFLSPAGGGGSEVQLVESGGGFVQAGESLTLSCTSSTLSCTSSTLTFTPYRMAWYRQAPGKQRDLVADISSGDGRTTNYADFAKGRFTISRDNIKNTVFLRMTNLKPEDTAVYYCNTFVSFVGIARSWGQGTQVTVSSEP
In the case of B3, the “Luc expression in hCEA+ cells (MC38CEA against MC38)” value [3] is reported as roughly 4 fold.

B4: JJB-D1 (VHH)
VHH: QVQLVESGGLVQAGGSLRPSCAASGSIFLQNAMGWYRQVPGKQRELVAAITSVDSTNYADSVKGRFTISRDNAKNTVYLQMNSLKPEDTAVYYCNAPWNSDYHWGKGTLVTVSS
notes: Alpaca anti-hCEA VHH, expressed and purified as a thioredoxin fusion protein; not shown: Thioredoxin fusion partner, E-tag and any linkers
Work on B4 yielded an EC50 [4] of roughly 1 nM.

B5: JJB-B2 (VHH)
VHH: QVQLVETGGGLVQPGGSLRLSCAASESIFSTYAMGWYRQAPGKQRELVAAITTNDIANYADSVKGRFTISRDNAKNTVYLQMNSLNPEDTAVYYCNAIFPPYNYWGQGTQVTVSS
notes: Alpaca anti-hCEA VHH, expressed and purified as a thioredoxin fusion protein; also called clone B2; B2 sdAb; not shown: Thioredoxin fusion partner, E-tag and any linkers
B5 showed an EC50 [4] of roughly 0.2 nM.

B6: JJB-A3 (VHH)
VHH: QVQLVETGGGLVQPGGSLRLSCAASGRISDINAMGWYRQAPGKQRELVAAITSVGSNYVDSVKGRFTISKDNAKNTVYLQMYSLNPEDTAVYYCNTQCGTWLVCDGRDQWGKGTLVTVSS
notes: Alpaca anti-hCEA VHH, expressed and purified as a thioredoxin fusion protein; the methods name only JJB-A3; not shown: Thioredoxin fusion partner, E-tag and any linkers
Binder B6 has an EC50 [4] of roughly 0.15 nM.

B7: Ad.CXCR4E1.B2 (conditionally replicative Ad5 with fiber-fibritin chimera expressing anti-hCEA sdAb clone B2) (other)
chain: MKRARPSEDTFNPVYPYDTETGPPTVPFLTPPFVSPNGFQESPPGVLSLRLSEPLVTSNGMLALKMGNGLSLDEAGNLTSQNVYSRLNEIDTKQTTVESDISAIKTSIGYPGNNSIITSVNTNTDNIASINLELNQSGGIKQRLTVIETSIGSDDIPSSIKGQIKDNTTSIESLNGIVGENTSSGLRANVSWLNQIVGTDSSGGQPSPPGSLLNRVSTIETSVSGLNNAVQNLQVEIGNNSAGIKGQVVALNTLVNGTNPNGSTVEERGLTNSIKANETNIASVTQEVNTAKGNISSLQGDVQALQEAGYIPEAPRDGQAYVRKDGEWVFLSTFLSPAGGGSQVQLVETGGGLVQPGGSLRLSCAASESIFSTYAMGWYRQAPGKQRELVAAITTNDIANYADSVKGRFTISRDNAKNTVYLQMNSLNPEDTAVYYCNAIFPPYNYWGQGTQVTVSSEPKTPKPQ
notes: domain: N-terminal Ad5 fiber tail region;domain: trimerizing domain of the fibritin protein; Chimeric fiber on whole purified virus particles; also called FFB2; fiber-fibritin-B2
For B7, the “fold binding to hCEA(+) MC38CEA cells against hCEA(-) MC38 cells” value [5] was roughly 25 fold.

B8: Ad5Luc (Ad5 vector with wild-type Ad5 fiber) (other)
chain: MKRARPSEDTFNPVYPYDTETGPPTVPFLTPPFVSPNGFQESPPGVLSLRLSEPLVTSNGMLALKMGNGLSLDEAGNLTSQNVTTVSPPLKKTKSNINLEISAPLTVTSEALTVAAAAPLMVAGNTLTMQSQAPLTVHDSKLSIATQGPLTVSEGKLALQTSGPLTTTDSSTLTITASPPLTTATGSLGIDLKEPIYTQNGKLGLKYGAPLHVTDDLNTLTVATGPGVTINNTSLQTKVTGALGFDSQGNMQLNVAGGLRIDSQNRRLILDVSYPFDAQNQLNLRLGQGPLFINSAHNLDINYNKGLYLFTASNNSKKLEVNLSTAKGLMFDATAIAINAGDGLEFGSPNAPNTNPLKTKIGHGLEFDSNKAMVPKLGTGLSFDSTGAITVGNKNNDKLTLWTTPAPSPNCRLNAEKDAKLTLVLTKCGSQILATVSVLAVKGSLAPISGTVQSAHLIIRFDENGVLLNNSFLDPEYWNFRNGDLTEGTAYTNAVGFMPNLSAYPKSHGKTAKSNIVSQVYLNGDKTKPVTLTITLNGTQETGDTTPSAYSMSFSWDWSGHNYINEIFATSSYTFSYIAQE
notes: Wild-type fiber on whole purified Ad5 virus particles; control vector; also called wild-type Ad5Luc; fiber unmodified control Ad5Luc vector
B8: no binding [1].

B9: Ad.CXCR4E1 (conditionally replicative Ad5 with wild-type Ad5 fiber) (other)
chain: MKRARPSEDTFNPVYPYDTETGPPTVPFLTPPFVSPNGFQESPPGVLSLRLSEPLVTSNGMLALKMGNGLSLDEAGNLTSQNVTTVSPPLKKTKSNINLEISAPLTVTSEALTVAAAAPLMVAGNTLTMQSQAPLTVHDSKLSIATQGPLTVSEGKLALQTSGPLTTTDSSTLTITASPPLTTATGSLGIDLKEPIYTQNGKLGLKYGAPLHVTDDLNTLTVATGPGVTINNTSLQTKVTGALGFDSQGNMQLNVAGGLRIDSQNRRLILDVSYPFDAQNQLNLRLGQGPLFINSAHNLDINYNKGLYLFTASNNSKKLEVNLSTAKGLMFDATAIAINAGDGLEFGSPNAPNTNPLKTKIGHGLEFDSNKAMVPKLGTGLSFDSTGAITVGNKNNDKLTLWTTPAPSPNCRLNAEKDAKLTLVLTKCGSQILATVSVLAVKGSLAPISGTVQSAHLIIRFDENGVLLNNSFLDPEYWNFRNGDLTEGTAYTNAVGFMPNLSAYPKSHGKTAKSNIVSQVYLNGDKTKPVTLTITLNGTQETGDTTPSAYSMSFSWDWSGHNYINEIFATSSYTFSYIAQE
notes: Wild-type fiber on whole purified virus particles; control vector; also called control CRAd
B9: no binding (tested: 1x10^3 vp per cell) [6].

B10: JJB-B5 (VHH)
VHH: QVQLVETGGGLVQPGGSLRPSCTASGSIFSIYAMGWYRQASGKQRELVALITRDEVFNYADSVKGRFTISRDNAKDTVYLQMNSLKPEDTAVYYCWVETVNDHYNSGVEDYWGQGTQVTVSS
notes: as for B4
Binder B10 has an EC50 [4] of roughly 50 nM.
